Columns and labels:
HeLa Kyoto [1] = experiment: solubility in G1/S (NP-40 vs SDS abundance) (log2 ratio); higher = more soluble; details: cell cycle stage: G1/S
HeLa Kyoto [2] = experiment: solubility change mitosis vs G1/S (difference of NP-40 vs SDS log2 ratios) (log2 ratio difference); higher = more soluble in mitosis
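Throughout, for solubility change mitosis vs G1/S (difference of NP-40 vs SDS log2 ratios): synchronized HeLa Kyoto cells (double thymidine block for G1/S, nocodazole release for mitosis), protein amounts in NP-40 versus SDS lysates quantified by mass spectrometry, three biological replicates.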
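Throughout, for solubility in G1/S (NP-40 vs SDS abundance): HeLa Kyoto cells arrested at G1/S by double thymidine block, proteins quantified by TMT10plex mass spectrometry in mild NP-40 versus SDS extracts, three biological replicates.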

Sequence | solubility in G1/S (log2) (HeLa Kyoto [1]) | solubility change mitosis (log2) (HeLa Kyoto [2])
MAAPRWSASGPWIRGNGQGCGSLFTLVSKPFCAAAAASTAINAQRLAEKLRAQKREQDTKKEPVSTNAVQRRVQEIVRFTRQLQRVHPNVLAKALTRGILHQDKNLVVINKPYGLPVHGGPGVQLCITDVLPILAKMLHGHKAEPLHLCHRLDKETTGVMVLAWDKDMAHQVQELFRTRQVVKKYWAITVHVPMPSAGVVDIPIVEKEAQGQQQHHKMTLSPSYRMDDGKMVKVRRSRNAQVAVTQYQVLSSTLSSALVELQPITGIKHQLRVHLSFGLDCPILGDHKYSDWNRLAPQKLSVGTLKKLGLEQSKARYIPLHLHARQLILPALGSGKEELNLVCKLPRFFVHSLHRLRLEMPNEDQNENNEAKCLGAQ [RPUSD4] | -0.22 | 0.0788
MAKPAATAAAASEELSQVPDEELLRWSKEELARRLRRAEGEKVGLMLEHGGLMRDVNRRLQQHLLEIRGLKDVNQRLQDDNQELRELCCFLDDDRQKGRKLAREWQRFGRHAAGAVWHEVARSQQKLRELEARQEALLRENLELKELVLLLDEERAALAATGAASGGGGGGGGAGSRSSIDSQASLSGPLSGGAPGAGARDVGDGSSTSSAGSGGSPDHHHHVPPPLLPPGPHKAPDGKAGATRRSLDDLSAPPHHRSIPNGLHDPSSTYIRQLESKVRLLEGDKLLAQQAGSGEFRTLRKGFSPYHSESQLASLPPSYQDSLQNGPACPAPELPSPPSAGYSPAGQKPEAVVHAMKVLEVHENLDRQLQDSCEEDLSEKEKAIVREMCNVVWRKLGDAASSKPSIRQHLSGNQFKGPL [CCDC85C] | 0.216 | 0.214
MAETSPEPSGQLVVHSDAHSDTVLASFEDQRKKGFLCDITLIVENVHFRAHKALLAASSEYFSMMFAEEGEIGQSIYMLEGMVADTFGILLEFIYTGYLHASEKSTEQILATAQFLKVYDLVKAYTDFQNNHSSPKPTTLNTAGAPVVVISNKKNDPPKRKRGRPKKVNTLQEEKSELAAEEEIQLRVNNSVQNRQNFVVKGDSGVLNEQIAAKEKEESEPTCEPSREEEMPVEKDENYDPKTEDGQASQSRYSKRRIWRSVKLKDYKLVGDQEDHGSAKRICGRRKRPGGPEARCKDCGKVFKYNHFLAIHQRSHTGERPFKCNECGKGFAQKHSLQVHTRMHTGERPYTCTVCSKALTTKHSLLEHMSLHSGQKSFTCDQCGKYFSQNRQLKSHYRVHTGHSLPECKDCHRKFMDVSQLKKHLRTHTGEKPFTCEICGKSFTAKSSLQTHIRIHRGEKPYSCGICGKSFSDSSAKRRHCILHTGKKPFSCPECNLQFARLDNLKAHLKIHSKEKHASDASSISGSSNTEEVRNILQLQPYQLSTSGEQEIQLLVTDSVHNINFMPGPSQGISIVTAESSQNMTADQAANLTLLTQQPEQLQNLILSAQQEQTEHIQSLNMIESQMGPSQTEPVHVITLSKETLEHLHAHQEQTEELHLATSTSDPAQHLQLTQEPGPPPPTHHVPQPTPLGQEQS [ZBTB24] | -0.495 | 0.142
MALEGMSKRKRKRSVQEGENPDDGVRGSPPEDYRLGQVASSLFRGEHHSRGGTGRLASLFSSLEPQIQPVYVPVPKQTIKKTKRNEEEESTSQIERPLSQEPAKKVKAKKKHTNAEKKLADRESALASADLEEEIHQKQGQKRKNSQPGVKVADRKILDDTEDTVVSQRKKIQINQEEERLKNERTVFVGNLPVTCNKKKLKSFFKEYGQIESVRFRSLIPAEGTLSKKLAAIKRKIHPDQKNINAYVVFKEESAATQALKRNGAQIADGFRIRVDLASETSSRDKRSVFVGNLPYKVEESAIEKHFLDCGSIMAVRIVRDKMTGIGKGFGYVLFENTDSVHLALKLNNSELMGRKLRVMRSVNKEKFKQQNSNPRLKNVSKPKQGLNFTSKTAEGHPKSLFIGEKAVLLKTKKKGQKKSGRPKKQRKQK [RBM34] | -2.26 | 1.46
MMPFGKISQQLCGVKKLPWSCDSRYFWGWLNAVFNKVDYDRIRDVGPDRAASEWLLRCGAMVRYHGQERWQKDYNHLPTGPLDKYKIQAIDATDSCIMSIGFDHMEGLEHVEKIRLCKCHYIEDDCLLRLSQLENLQKTILEMEIISCGNITDKGIIALRHLRNLKYLLLSDLPGVREKENLVQAFKTALPSLELKLQLK [ATP5S] | -0.164 | -0.136
MAAPVGPVKFWRPGTEGPGVSISEERQSLAENSGTTVVYNPYAALSIEQQRQKLPVFKLRNHILYLIENYQTVVIVGETGCGKSTQIPQYLAEAGWTAEGRVVGVTQPRRVAAVTVAGRVAEERGAVLGHEVGYCIRFDDCTDQLATRIKFLTDGMLVREMMVDPLLTKYSVIMLDEAHERTLYTDIAIGLLKKIQKKRGDLRLIVASATLDADKFRDFFNQNETSDPARDTCVILTVEGRTFPVDIFYLQSPVPDYIKSTVETVVKIHQTEGDGDVLAFLTGQEEVETVVSMLIEQARALARTGMKRHLRVLPMYAGLPSFEQMKVFERVSRSVRKVIVATNVAETSITISGIVYVIDCGFVKLRAYNPRTAIECLVVVPVSQASANQRAGRGGRSRSGKCYRLYTEEAFDKLPQSTVPEMQRSNLAPVILQLKALGIDNVLRFHFMSPPPAQSMVQALELLYALGGLDKDCRLTEPLGMRIAEFPLNPMFAKMLLESGNFGCSQEILSIAAMMQIQNIFVVPPNQKSHAIRVHRKFAVEEGDHLTMLNIYEAFIKHNKDSKWCQEHFLNYKGLVRAATVREQLKKLLVKFQVPRKSSEGDPDLVLRCIVSGFFANAARFHSTGAYRTIRDDHELHIHPASVLYAEKPPRWVIYNEVIQTSKYYMRDVTAIESAWLLELAPHFYQQGTHLSLKAKRAKVQDP [DHX35] | -0.538 | 0.261
MGRGLLRGLWPLHIVLWTRIASTIPPHVQKSVNNDMIVTDNNGAVKFPQLCKFCDVRFSTCDNQKSCMSNCSITSICEKPQEVCVAVWRKNDENITLETVCHDPKLPYHDFILEDAASPKCIMKEKKKPGETFFMCSCSSDECNDNIIFSEEYNTSNPDLLLVIFQVTGISLLPPLGVAISVIIIFYCYRVNRQQKLSSTWETGKTRKLMEFSEHCAIILEDDRSDISSTCANNINHNTELLPIELDTLVGKGRFAEVYKAKLKQNTSEQFETVAVKIFPYEEYASWKTEKDIFSDINLKHENILQFLTAEERKTELGKQYWLITAFHAKGNLQEYLTRHVISWEDLRKLGSSLARGIAHLHSDHTPCGRPKMPIVHRDLKSSNILVKNDLTCCLCDFGLSLRLDPTLSVDDLANSGQVGTARYMAPEVLESRMNLENVESFKQTDVYSMALVLWEMTSRCNAVGEVKDYEPPFGSKVREHPCVESMKDNVLRDRGRPEIPSFWLNHQGIQMVCETLTECWDHDPEARLTAQCVAERFSELEHLDRLSGRSCSEEKIPEDGSLNTTK [TGFBR2] | -0.228 | -0.067
MGDNPFQPKSNSKMAELFMECEEEELEPWQKKVKEVEDDDDDEPIFVGEISSSKPAISNILNRVNPSSYSRGLKNGALSRGITAAFKPTSQHYTNPTSNPVPASPINFHPESRSSDSSVIVQPFSKPGYITNSSRVVSNKSSELLFDLTQDTGLSHYQGGPTLSMAGMSESSFLSKRPSTSEVNNVNPKKPKPSESVSGANSSAVLPSVKSPSVTSSQAMLAKGTNTSSNQSKNGTPFPRACPKCNIHFNLLDPLKNHMKYCCPDMINNFLGLAKTEFSSTVNKNTTIDSEKGKLIMLVNDFYYGKHEGDVQEEQKTHTTFKCFSCLKILKNNIRFMNHMKHHLELEKQSSESWENHTTCQHCYRQFPTPFQLQCHIESTHTPHEFSTICKICELSFETEHVLLQHMKDNHKPGEMPYVCQVCNYRSSSFSDVETHFRTSHENTKNLLCPFCLKVIKIATPYMHHYMKHQKKGIHRCTKCRLQFLTCKEKMDHKTQHHRTFIKPKQLEGLPPGTKVTIRASVGPLQSGASPTPSISASASTLQLSPPRTKNITAKNPAKSNTSKPNTVKSNASKPNTSKPNGSKSKYKPKISNMQKKQSTLASSNKKSKVNTALRNLRYRRGIHKCIECCSEIKDFANHFPTYVHCSFCRYNTSCSKAYVNHMMSFHSNRPSKRFCIFKKHSENLRGITLVCLNCDFLSDVSGLDNMATHLSQHKTHTCQVVMQKVSVCIPTSEHLSELKKEAPAKEQEPVSKEIARPNMAERETETSNSESKQDKAASSKEKNGCNANSFEGSSTTKSEESITVSDKENETCLADQETGSKNIVSCDSNIGADKVEKKKQIQHVCQEMELKMCQSSENIILSDQIKDHNSSEARFSSKNIKDLRLASDNVSIDQFLRKRHEPESVSSDVSEQGSIHLEPLTPSEVLEYEATEILQKGSGDPSAKTDEVVSDQTDDIPGGNNPSTTEATVDLEDEKERS [ZNF280D] | -0.86 | 0.447
MGETKIIYHLDGQETPYLVKLPLPAERVTLADFKGVLQRPSYKFFFKSMDDDFGVVKEEISDDNAKLPCFNGRVVSWLVSAEGSHPDPAPFCADNPSELPPPMERTGGIGDSRPPSFHPHAGGGSQENLDNDTETDSLVSAQRERPRRRDGPEHATRLNGTAKGERRREPGGYDSSSTLMSSELETTSFFDSDEDDSTSRFSSSTEQSSASRLMRRHKRRRRKQKVSRIERSSSFSSITDSTMSLNIITVTLNMEKYNFLGISIVGQSNERGDGGIYIGSIMKGGAVAADGRIEPGDMLLQVNEINFENMSNDDAVRVLREIVHKPGPITLTVAKCWDPSPRGCFTLPRSEPIRPIDPAAWVSHTAAMTGTFPAYGMSPSLSTITSTSSSITSSIPDTERLDDFHLSIHSDMAAIVKAMASPESGLEVRDRMWLKITIPNAFIGSDVVDWLYHNVEGFTDRREARKYASNLLKAGFIRHTVNKITFSEQCYYIFGDLCGNMANLSLHDHDGSSGASDQDTLAPLPHPGAAPWPMAFPYQYPPPPHPYNPHPGFPELGYSYGGGSASSQHSEGSRSSGSNRSGSDRRKEKDPKAGDSKSGGSGSESDHTTRSSLRGPRERAPSERSGPAASEHSHRSHHSLASSLRSHHTHPSYGPPGVPPLYGPPMLMMPPPPAAMGPPGAPPGRDLASVPPELTASRQSFRMAMGNPSEFFVDVM [DVL3] | -0.0796 | -0.17
MGAVTDDEVIRKRLLIDGDGAGDDRRINLLVKSFIKWCNSGSQEEGYSQYQRMLSTLSQCEFSMGKTLLVYDMNLREMENYEKIYKEIECSIAGAHEKIAECKKQILQAKRIRKNRQEYDALAKVIQHHPDRHETLKELEALGKELEHLSHIKESVEDKLELRRKQFHVLLSTIHELQQTLENDEKLSEVEEAQEASMETDPKP [THOC7] | -0.022 | 0.387
